From patent US20210206865A1

Biological target: monkey BCMA-MMH (monkey BCMA with C-terminal myc-myc-hexahistidine tag) (monkey)
Experiment: SPR Biacore, 25 C, mAb captured via anti-hFc

Sequence of monkey BCMA-MMH (monkey BCMA with C-terminal myc-myc-hexahistidine tag) (monkey) (chain, as listed by the source limits assumed): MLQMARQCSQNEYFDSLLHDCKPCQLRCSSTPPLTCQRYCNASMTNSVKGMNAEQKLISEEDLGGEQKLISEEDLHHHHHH

Binder	90 nM mfBCMA.mmh Bind (RU)
mAb16732 (REGN4514) (antibody, V domains shown) VH: EVQLVESGGGLVQPGRSLRLSCAASGFTFDDYAMHWVRQAPGKGLEWVSGISWNSGNMGYADSVKGRFTISRDNAKNSLFLQMHSLRAEDTAFYYCAKVRLTAFDFWGQGTLVTVSS VL: DIQMTQSPSSLSASVGDRVTITCRTSQSIGNYLNWFQQKPGKAPKLLIYTASSLQNGVPSRFTGSGSGTDFTLTISSLQPEDFVIYYCQQSFSTPYTFGQGTKLEIK	1.1 RU
mAb16747 (REGN4515) (antibody, V domains shown) VH: QVQLVESGGGLVKPGGSLRLSCAASGFTFSDYYISWIRQAPGKGLEWVSYISSSGSSIKYADSVKGRFTISRDNAKNSLYLQMNSLRAEDTAVYYCAREGGNYGMDVWGQGTTVTVSS VL: DIQMTQSPSSVSASVGDRVTITCRASQGINNWLVWYQQKPGKAPKLLIYAATSLQSGVPSRFSGSGSGTDFTLTISSLQPEDFATYYCQQANSFPPTFGQGTKLEIK	1.9 RU
